The values that follow come from the DeepSol protein solubility set.

A short description of this data set: soluble on expression in E. coli; label from the status in PepcDB or PDB records.
Take “MMHMDESRKEIIREEAKRAKAIAVEKYKAGDFAGAKEFALKAKQINPALGGLRRLNALLDVCMGFQKQVNGEVDWYDVLAVERTADFITIFNRYSTLAIDISLDRDESVGSGVKEALKILTDASKYFLERRELLPSRRVSGPINQLSRISCEGSKQKEPPPTNLLHVSKLTRMSEDAEIRHDISPNRLRSALARKATSVIKLSLETFVCSSPHNNVGAAEETDNKVMEE”: the “soluble on expression in E. coli” value was “soluble”.
As to “MMHYDGMYYINEEEVRSNLTMKDTIDAIREAFEEYRAGRASSNTRVRTFSEGSVLNTMPASMEKYHILGHKTYSASRNGARFVVTLFDSRNNDLIAIVEANRLGQMRTGAVTAYATSILHPHVENFTIIGSGFQAETQLEGMITVSHPQSIRVYSRNYDHAKDFASRMSKQFGVDIRPVDNAEAALSDADTVSSITNSTSPVILRKYLGDEYHVNLAGSNYMNRREAEYEVLHDADLVVTEHYDQSMVESAEISEYVKFGGKPVELREIAGRYGEFSGLRRTVFKSMGIGLEDIATAYRVLRNLGIA”, the “soluble on expression in E. coli” value is “soluble”.
As to “MMIIVGVDAGGTKTKAVAYDCEGNFIGEGSSGPGNYHNVGLTRAIENIKEAVKIAAKGEADVVGMGVAGLDSKFDWENFTPLASLIAPKVIIQHDGVIALFAETLGEPGVVVIAGTGSVVEGYNGKEFLRVGGRGWLLSDDGSAYWVGRKALRKVLKMMDGLENKTILYNKVLKTINVKDLDELVMWSYTSSCQIDLVASIAKAVDEAANEGDTVAMDILKQGAELLASQAVYLARKIGTNKVYLKGGMFRSNIYHKFFTLYLEKEGIISDLGKRSPEIGAVILAYKEVGCDIKKLISD”, the “soluble on expression in E. coli” value is “soluble”.
For “MMKKPLLVLTALSLSLSAILSPLPATAALPLSVNGEQIPSLAPMLEKVTPAVVSIAVEGTQVSRQRLPDQFRFFFGPDFPTEQLQERPFRGLGSGVIINADKGYVVTNYHVINGAEKIRVKLYDGREFDAELVGGDEMSDVALLKLNKAKNLTEIRIADSDKLRVGDFAVAIGNPFGLGQTVTSGIVSALGRSGLNIENFENFIQTDAAINSGNSGGALVNLNGELIGINTAILGPNGGNVGIGFAIPSNMMKNLTDQILEFGEVKRGMLGVQGGEITSELADALGYESSKGAFVSQVVPDSAADKAGIKAGDIITSLNGKKIDTFSELRAKVATLGAGKTITLGVLRDGKNQNIDVTLGEQQNAKTKAESLHQGLSGAELSNTTDSDPIQGVKVTEVQKGSAAESYQLQKDDIIIGVNRKRVKNIAELRAIMEKSPNILALNIQRGERTLYLVVR” the value was “not soluble”; for “MMKLKVYADRMSQPSRAVIIFCKVNGIQFDEVLISLAKRQQLSPEFKDINPLGKVPAIVDGRLKLFESHAILIYLSSAFPSVADHWYPNDLSKRAKIHSVLDWHHTNLRRGAAGYVLNSVLGPALGLPLNPKAAAEAEQLLTKSLSTLETFWLKGNAKFLLGSNQPSIADLSLVCELMQLQVLDDKDRLRLLSTHKKVEQWIENTKKATMPHFDETHEILFKVKEGFQKRREMGTLSKPGLQSKI”, “soluble”; for “MMLHAQHMPGQPGTPSLVFLHGFSGDCHEWQPVGEQFHGCSRLYIDLPGHGGSAAIPVDGFADVIRLLRATLISYNILKFWLVGYSLGGRVAMMAACQGIPGLCGLVVEGGHPGLQNEQARAERRLSDGRWAERFRHEPLTEVFHDWYQQPVFASLTAQQRQALTALRSQNNGETLAAMLEATSLAVQPDLREALNALAFPFYYLCGERDSKFRALAQEVAATCHVIRNAGHNAHRENPAGVVDSLAQILRL”, “not soluble”.
For “MMMKSLLMTPLSHRVLKLFCRQTDQRFQKQKNALQQVQREKLQQILKISTLAQAAGVTDYEQFRQQFPVTRYTHWRDRIHECRAQQSTLSNSKLVRYQPTSGSSEQIKFIPYTQAFLDELDAAIAPWLSSMYRKCSTLGQGTHYWSVSWLPESQREVLKNENLNDDSALLGVGKRLLSKFTQTVPSDVSFAAHADDALFATLCYLVADQDLAMISVWSPTFALQLLEKLTEQSHEIALVLETGQWQTRAASLKGVKAPYNSARASLLRQLMKKDTLDYQQLWPKLSLVSSWDTAGSKQWAQLLQSELPFAQFEGKGLWATEGVVTIPYDDLYPLAYHSHFYEFEYLAGEHQGDIIPSWQLKLNDLVSPVLTSGNGLLRYCLDDCLRVTGFYGQVPCFEFQGRRFGVDLVGEKLSPEVAHKLLTRLNQQHIQAISLFAVDTQQQAKPFYAVLVEGEATSPLSVDEIDQALREHFHYELARDLGQLDQPQIFYVDNGWEGYKQVVVREGMIEGNIKPEPLKKVTLSSLEQLSCAESV” the value was “not soluble”; for “MMNYELMTTQNAPVKMWTKGVPVEDDARQQLINTAKMPFIFKHIAVMPDVHLGKGSTIGSVIPTKGAIIPAAVGVDIGCGMNALRTSLTAADLPENLADLRSAIEAAVPHGRTTGRGHRDVGAWGNPPANVNEKWAQLEAGYQWLTQKYPRFLNTNNYKHLGTLGTGNHFIEICLDETDRVWIMLHSGSRGIGNAIGTYFIGLAQQEMQEQLETLPSRDLAYFNEGSEYFDDYLKAVHWAQQFASLNREAMMENALAALQRCVEKPSALDMDEINCHHNYVQKEQHFGEEIYVTRKGAVSARRGEFGIIPGSMGAKSFIVRGLGNEESFCSCSHGAGRVMSRTKAKKLFSVDDQIRATAHVECRKDADVIDEIPMAYKDIDAVMAAQSDLVEIMYALRQVVCVKGLEHHHHHH”, “not soluble”.
Turning to “MMPAHETYDVIVVGAGAGGMTAAAVAAAEGLSVLVIEKTAFVGGTTAWSDGMVWIPANPKMKAAGLSDSVADAVQYLSSTVPEPANAGLRAAFLARGPEAVTYLEAKTEVRFLPVKTCPDYYPERLGATSGGRALEPVAFDGTRLGRAFARLRPPLPEFTLFGGMMVNRLDIPHLRRIGKSLRSTLRAARLVSEYMMQRLRSPRGTTLHLGNALAARLYASLLARQGEILFSADVEDLSMQGDRVSGVVIRHGSRDRAIAARRGVVLATGGFSHDAALRKRFFPPAAGFVSATSPSGTGDGLRLAATAGAALNTEATSPAYWVPASLFRRADGSRGVFPHTVTDRAKPGVIAVNAAGRRFVNEALSYHEFVLAMLRDGHGEPDRPFYLICDRQFLWSYGLGRIKPFTRNFRRYVASGELVEAPDITQLAAKIGIKPSVLTATIAAYNIDAKEGRDPEFGRGTTIYQRHLGDISHKPNPCVAPILRAPYFALRIYPADLGTAIGMKVDAQARVLRGDGTPIAGLYACGNDMGSIMNGNCPGPGITLGPALTFGYIAGRHLAEGGVTRELAKEQMLEHHHHHH”, the “soluble on expression in E. coli” value is given as “not soluble”.
Turning to “MMPLSTPDFASIRDTLLRDLQNLRADADIAPDSDYFVRASSVASAVEGLYQHQSWIARQIFPDTADSEYLEQHARLRGIVRKPAAAASGTLRISGNAGAVVSGSLQLRIGEQLYATPAANPDGSPYAARLDANGQAELPIFASQAGAAGNQPESLPVELMQAPSGVSAKALLLSMRNGVDVEDDAALLDRLLELIRRPPAGGNRHDYRRWAMEVKGVSAAYVYPLRRGLGTVDVVITANGDLPSQEILNNVQAHIEDLRPVTAKSCLVLAPTPRPVDIDVALNLGGANLDAFTPLLQQTLQAYFAGLAPGERLVKSRIEALISDLPGVQDRQLNSPAGNVDPVSDPTKVEWLRLGKLTVGLLKLEHHHHHH”, the “soluble on expression in E. coli” value is “soluble”.
For “MMQEETFYSVRMRASMNGSHEDGGKHISGGERLIPFHEMKHTVNALLEKGLSHSRGKPDFMQIQFEEVHESIKTIQPLPVHTNEVSCPEEGQKLARLLLEKEGVSRDVIEKAYEQIPEWSDVRGAVLFDIHTGKRMDQTKEKGVRVSRMDWPDANFEKWALHSHVPAHSRIKEALALASKVSRHPAVVAELCWSDDPDYITGYVAGKKMGYQRITAMKEYGTEEGCRVFFIDGSNDVNTYIHDLEKQPILIEWEEDHDS”, the “soluble on expression in E. coli” value is “not soluble”.
For “MMQIRPVSDLRNKFSEIENIIISNKSPVFLTKNGHGSMVLMSLDMYESLTDNVENRLDEADFQAASTNVRLSHKDVFSDIRSKI” the value was “not soluble”; for “MMQPLQLSAGGFAVVLGTNEIASAVAVHLHREGCCVVMSHDPFPPVIRRKMAFHDALYGDEVTVEGVRGERVDHATQIFKALRRSDNVLVSWLALPDLLPIGAVDVLIDARMQKHRVTPDLRGLARISVGLGPGFSTAVNCDVAIETRPGRSGLIVGAGWTDAADGVASPLGGVGAERFEYSQASGRWRTAVEIGSRVFSGFTIGHLGGVPVRAPCDGILRGVVRDGQDVPQGVKLLEVDSRGRHAQWTGIDDRGRGIAKAVLRAVQPQAEIRTSYAAQPIAVFLEHHHHHH”, “not soluble”; for “MMRKVALFGFSLLLLAGCSSSDSSLPLFSSLPKGVTLVEEVKAEPGKVMIPYSKYRLDNGLTVILSPDDSDPLVHVDVTYHVGSAREEIGKSGFAHFFEHMMFQGSKHVGDQQHFRLITEAGGSLNGTTNRDRTNYFETVPANQLEKMLWLEADRMGFLLDAVSQRKFEIQRDTVKNERAQNYDNRPYGLMWEKMGEALYPEGHPYSWQTIGYVSDLDRVDVNDLKAFFLRWYGPNNAVLTIGGDLDVKQTLAWVQKYFGSIPKGPDVVDAPKQPARLSEDRFITLEDRVQQPMLLIGWPTQYWGAEDQVALDALASALGSGNNSLLYQELVKTQKAVDAGAFQDCAELACTFYVYAMAPSGAKGKLAPLYQETLQVLEKFKQQGVSASRLEQIIGSEEASAVFALESVKGKVSQLAANQTFFDQPDRIESQLEKIRAVTPESVKQVFTRYLDGQPKVTLSVVAKGKTDFAVRPATFITPERQLPEYQKIGDEQLAYREVKDSFDRSQMPQVAQAVQPRLPKLYDVYFDNGVQLLGTQTRETPTVLIEIQLPAGERQVAMGKEGLANLTASLLQEGSQNRSAEAIQAQLDKLGSSIQVVAGAYSTSIVVSSLKKNLPETLQISQEMLLKPAFKQSDFARLQQQMLQGVVYQHQQPSWLASQATRQVLWGESLFARSGDGTQASISALTLKDVKQFYRQHYTPHGAQIAVVGDISAREIRQQLQFIADWKGEAAPLINPQVVPTLTKQKIYLVDKPGAPQSIIRMVRKGLPFDATGELYLTQLANFNLAGNFNSRINQNLREDKGYTYGAGSYFASNREIGAIVFNAPVRADVTVEAIQEMIKEMHHFSQAGMSEEEMKFLRLAVGQQDALMYETPAQKAQLVSSILTYSLDRDYLQQRNEIVKSVDRSTLNELAAKWFNPEDYQIIVVGDAKRLKPQLEKLGIPLEELEIIR”, “not soluble”.
The value for “MMSAVERRMEIVNVVNQDGKARVEDLAARFDVSSVTIRSDLSFLEKNGYVVRSHGAAIPNTGVIAELTVHEKRHQNIGTKSSIGYAAAQLIENGDTVILDSGTTTREIASNLKSLEQAVVMTNGLDVAMELASASGIEVLMSGGVLRKKALSFSGSQAEASLKNYRFDKVFLGVDGFDLRSGITTHNEQEASLNRLMCDISEQVIAVADSTKFGKRSCHMIREFGNIDILVTDSDIPEEYLQGLREMKVEVIIVEKEK” was “not soluble”; that for “MMSNRSDFIVPDEAAVKRAASVNFHLEPLRPWLDDPQITEVCVNRPGEVFCERASAWEYYAVPNLDYEHLISLGTATARFVDQDISDSRPVLSAILPMGERIQIVRPPACEHGTISVTIRKPSFTRRTLEDYAQQGFFKHVRPMSKSLTPFEQELLALKEAGDYMSFLRRAVQLERVIVVAGETGSGKTTLMKALMQEIPFDQRLITIEDVPELFLPDHPNHVHLFYPSEAKEEENAPVTAATLLRSCLRMKPTRILLAELRGGEAYDFINVAASGHGGSITSCHAGSCELTFERLALMVLQNRQGRQLPYEIIRRLLYLVVDVVVHVHNGVHDGTGRHISEVWYDPNTKRALSLQHSEKT” was “soluble”.
For “MMTLIRITSADDSRLNRLIPLYEESFPESERRKIGQLKRMIENHAPMYFNAIECDGELSGMFVYWDMGDFYYLEHLAVFPEMRNKKIGQQVLDYVAEHLKGVRLLEVEPTEDEMTTRRVNYYRRNGYEVLDKTYVQPSYHALEDACPLWIMGSEDSPRLAEQVERIKEEVYRQQVG” the value was “not soluble”.
